The source of these data is patent publication US20110182887A1 (AstraZeneca / MedImmune, published 2011).

The target of experiment [1] is T1, human CD22 (hCD22) expressed on the cell surface (human, UniProt P20273 20-847).
T1 construct: whole, on cells; One molecule is used for all cell-surface formats; also called human CD22 antigen; BHK-CD22
Briefly: cell ELISA on BHK cells expressing human CD22, COS-7 supernatant, OD 655 nm. In general terms: ELISA stands for enzyme-linked immunosorbent assay.

For experiment [2], the target named is T1, human CD22 (hCD22) expressed on the …. The experiment in a line: cell ELISA on BHK cells expressing human CD22, RHOv2 heavy chain expressed with the RKC light chain in COS cells.
Experiment [3] shares this target. The experiment in a line: cell ELISA on BHK cells expressing human CD22, OD 655 nm.
Experiment [4] shares this target. Briefly: cell ELISA on BHK cells expressing human CD22, RHOv2B heavy chain expressed with the RKC light chain in COS cells.
The target is the same in experiment [5]. Briefly: cell ELISA on BHK cells expressing human CD22, RHOv2A heavy chain expressed with the RKC light chain in COS cells.
For experiment [6], the target named is hCD22 (ligand immobilised on the BIAcore CM5 sensor chip) (human, UniProt P20273 20-687, limits assumed). Briefly: SPR (BIAcore 3000), hCD22 immobilised on CM5 chip, IgG injected, 1:1 model. How it is done:
Binding affinity of HB22.7 and RHOv2ACD/RKA were determined on a BIAcore 3000 instrument (BIAcore, Inc., Uppsala, Sweden). The ligand, hCD22, was prepared at 50 nM in 10 mM NaOAc, pH4 buffer. It was injected onto an EDC/NHS-activated CM5 sensor chip (BIAcore, Inc. Uppsala, Sweden) using a standard immobilization protocol. Following this, any unreacted active ester moieties were quenched using 1M Et-NH2 (ethanolamine; coupling reagents purchased from BIAcore, Inc.). A total of 535 and 689 RUs hCD22 remained bound to two sensor chip surfaces used in these experiments. Separately, a blank surface was prepared on each sensor chip using the identical protocol (minus protein). The blank surfaces were used as a reference cell in the experiments, and served to correct for both non-specific binding and some housekeeping artifacts.
For the kinetic experiments, HB22.7 and RHOv2ACD/RKA were prepared as two dilution series, starting at 22 nM and 100 nM, then diluted three- and two-fold, respectively, down to final concentrations of 0.03 nM and 0.39 nM in HBS-EP buffer (BIAcore, Inc., consisting of the following: 10 mM HEPES buffer, pH7.4, 150 mM NaCl, 3 mM EDTA, and 0.005% P20). Each concentration of IgG was then injected over both the CD22 and reference cell surfaces, which are connected in series. Between injections, surfaces were regenerated with a 1-minute injection of 3M MgCl2.
Background: Surface plasmon resonance follows binding to a sensor surface in real time, without labels.

Experiment [7] addresses T1, human CD22 (hCD22) expressed on the …. Briefly: cell ELISA on BHK cells expressing human CD22, COS-7 supernatant, OD 655 nm. The source holds these as a separate data set.
The target is the same in experiment [8]. The experiment in a line: cell ELISA on BHK cells expressing human CD22, OD 655 nm. This is another data set of the same source.
The target is the same in experiment [9]. Briefly: cell ELISA on BHK cells expressing human CD22, RHOv2C heavy chain expressed with the RKC light chain in COS cells.
Experiment [10] shares this target. The experiment in a line: cell ELISA on BHK cells expressing human CD22, RHOv2D heavy chain expressed with the RKC light chain in COS cells.
The target is the same in experiment [11]. The experiment in a line: cell ELISA on BHK cells expressing human CD22, COS-7 supernatant, goat anti-human Ig-HRP, OD 450 nm. From the text:
The BHK-CD22 binding assay was used to test the binding activity of the chHB227 antibody in the transiently transformed COS 7 culture supernatants. A goat anti-human Ig-HRP conjugate (Sigma Chemicals) was used to detect binding of chHB22.7 mAb while a goat anti-mouse Ig-HRP conjugate (Southern Biotechnology) was used to detect binding of the parental mouse HB22.7 mAb. The bound HRP conjugates were exposed to the substrate o-phenyldiamine (OPD) and the resulting products detected at 450 nm.

For experiment [12] the target is unchanged. The experiment in a line: cell ELISA on BHK cells expressing human CD22, OD 655 nm. The source holds these as a separate data set.
For experiment [13] the target is unchanged. The experiment is described as above. This is another data set of the same source.
For experiment [14] the target is unchanged. Briefly: cell ELISA on BHK cells expressing human CD22, COS-7 supernatant, OD 655 nm. The source holds these as a separate data set.

Changes are numbered by the printed parent chain. Names may count otherwise.

B1: HB227RHB + HB227RKC humanized antibody (antibody, human IgG1, V domains shown)
VH: QVQLQESGPALVKPTQTLTLTCTFSGFSLSDYGVNWIRQPPGKALEWLAIIWGDGRTDYNSALKSRLSISKDTSKNQVVLRMTNVDPVDTATYFCARAPGNRAMEYWGQGTVVTVSS
VL: DIVMTQSPSSLSASVGDRVTITCKASQSVTNDVAWYQQKPGKAPKLLIYYASNRYTGVPDRFSGSGYGTDFTLTISSLQPEDFATYFCQQDYRSPWTFGGGTKVEIKR
notes: Human IgG1 kappa, COS-7 supernatant; also called RHB+RKC
Turning to B1, the binding result in [1] was “binds”.

B2: HB227RHOv2 + HB227RKC humanized antibody (antibody, human IgG1, V domains shown)
VH: QVQLEESGGGVVRPGRSLRLSCAASGFTLSDYGVNWIRQAPGKGLEWVGIIWGDGRTDYNSALKSRLTVSRNNSNNTLSLQMNSLTTEDTAVYYCVRAPGNRAMEYWGQGVLVTVS
VL: B1 VL
notes: Human IgG1 kappa, COS-7 supernatant; Carries all four VH back mutations: F29L, D30S, T49G, F67L; also called RHOv2+RKC
With B2, in [2], the binding result is listed as “binds”.

B3: HB227RHO + HB227RKC humanized antibody (antibody, human IgG1, V domains shown)
VH: B2 VH
VL: B1 VL
notes: Human IgG1 kappa, COS-7 supernatant; also called RHO+RKC
For B3, the binding result in [1] is listed as “binds”.

B4: chH/RK (antibody, V domains shown)
VH: QVQLKESGPGLVAPSQSLSITCTVSGFSLSDYGVNWVRQIPGKGLEWLGIIWGDGRTDYNSALKSRLNISKDNSKSQVFLKMNSLKADDTARYYCARAPGNRAMEYWGQGTSVTVSS
VL: B1 VL
notes: also called chH+RKC; chimeric HB22.7 heavy chain (chH) + HB227RKC light chain
Turning to B4, the concentration giving a half-maximal response (EC50 (read off the curve)) in [1] was about 0.2 µg/mL.

B5: HB227RHOv2ACD + HB227RKC humanized antibody (antibody, human IgG1, V domains shown)
VH: B2 VH with L29F, G49T, L67F
VL: B1 VL
notes: Human IgG1 kappa, COS-7 supernatant; also called RHOv2ACD+RKC
B5: the binding result in experiment [3] is on record as “binds”.

B6: HB227RHOv2B + HB227RKC humanized antibody (antibody, human IgG1, V domains shown)
VH: B2 VH with S30D
VL: B1 VL
notes: RHOv2 with the D30S back mutation removed; Human IgG1 kappa, COS-7 supernatant; also called HB227v2B
In the case of B6, the binding result in [4] was “binds”.

B7: HB227RHOv2A + HB227RKC humanized antibody (antibody, human IgG1, V domains shown)
VH: B2 VH with L29F
VL: B1 VL
notes: RHOv2 with the F29L back mutation removed; Human IgG1 kappa, COS-7 supernatant; also called HB227v2A
For the molecule B7, the binding result in experiment [5] is “binds”.

B8: humanized anti-hCD22 antibody RHOv2ACD/RKA (HB227RHOv2ACD VH + HB227RKA VK) (antibody, human IgG1, V domains shown)
VH: B2 VH with L29F, G49T, L67F
VL: B1 VL with D60S, Y67S, F87Y
notes: Human IgG1 kappa expression vectors; It was labelled with Alexa-fluor in some cell assays; also called RHOvACD/RKA; RHOACD/RKA
In the case of B8, in experiment [6], the dissociation constant (Kd) amounted to 22 nM, the koff was 0.00069 s⁻¹ and the kon is 32000 M⁻¹ s⁻¹.

B9: HB227RHF + HB227RKC humanized antibody (antibody, human IgG1, V domains shown)
VH: B1 VH with F24V, A49G, T73N
VL: B1 VL
notes: Human IgG1 kappa, COS-7 supernatant; also called RHF+RKC; humanized (RHF+RKC) antibody
Take B9: in [7], the concentration for a half-maximal effect (EC50 (read off the curve)) was about 0.2 µg/mL.

B10: HB227RHOv2ABCD + HB227RKC humanized antibody (antibody, human IgG1, V domains shown)
VH: B2 VH with L29F, S30D, G49T, L67F
VL: B1 VL
notes: No VH back mutations; Human IgG1 kappa, COS-7 supernatant; also called RHOv2ABCD+RKC
As to B10, the binding result in experiment [8] was “binds”.

B11: HB227RHOv2C + HB227RKC humanized antibody (antibody, human IgG1, V domains shown)
VH: B2 VH with G49T
VL: B1 VL
notes: RHOv2 with the T49G back mutation removed; Human IgG1 kappa, COS-7 supernatant; also called HB227v2C
As for B11, the binding result in [9] is given as “binds”.

B12: HB227RHOv2D + HB227RKC humanized antibody (antibody, human IgG1, V domains shown)
VH: B2 VH with L67F
VL: B1 VL
notes: RHOv2 with the F67L back mutation removed; Human IgG1 kappa, COS-7 supernatant; also called HB227v2D
With B12, the binding result in experiment [10] was “binds”.

B13: HB227RHC + HB227RKC humanized antibody (antibody, human IgG1, V domains shown)
VH: B1 VH with A49G, T73N
VL: B1 VL
notes: Human IgG1 kappa, COS-7 supernatant; also called RHC+RKC
For the molecule B13, the binding result in experiment [1] is recorded as “binds”.

B14: chimeric HB22.7 antibody chHB227 (chH + chL) (antibody, V domains shown)
VH: QVQLKESGPGLVAPSQSLSITCTVSGFSLSDYGVNWVRQIPGKGLEWLGIIWGDGRTDYNSALKSRLNISKDNSKSQVFLKMNSLKADDTARYYCARAPGNRAMEYWGQGTSVTVS
VL: SIVMTQTPKFLLVSAGDRITLTCKASQSVTNDVAWYQQKPGQSPKLLIYYASNRYTGVPDRFTGSGYGTDFTFTISTVQAEDLAVYFCQQDYRSPWTFGGGTKLEI
notes: Tested as COS-7 supernatant; also called CH+CK; fully chimeric antibody
Regarding B14, the concentration for a half-maximal effect (EC50 (read off the curve)) is about 0.1 µg/mL in experiment [1]; about 0.1 µg/mL in [11]; about 0.3 µg/mL in experiment [12]; about 0.1 µg/mL in experiment [7]; about 0.3 µg/mL in [13]; about 0.3 µg/mL in [3].

B15: HB227RHB heavy chain + chimeric HB22.7 light chain (chL) (antibody, human IgG1, V domains shown)
VH: B1 VH
VL: B14 VL
notes: Human IgG1 kappa, COS-7 supernatant; The VH entry may include the leader; also called RHB+chL
For the molecule B15, the binding result in [14] was “binds”.

B16: HB227RHF heavy chain + chimeric HB22.7 light chain (chL) (antibody, human IgG1, V domains shown)
VH: B1 VH with F24V, A49G, T73N
VL: B14 VL
notes: Human IgG1 kappa, COS-7 supernatant; The VH entry may include the leader; also called HB227RHF+chL; RHF+chL
Consider B16, for which the binding result in experiment [7] is “binds”.

A word on the EC50 (read off the curve): it is the concentration at which the effect is half-maximal. A lower EC50 (read off the curve) goes with higher potency in that assay. In general, Kd refers to the free concentration of one partner at which half of the binding sites on the other are occupied at equilibrium, for simple one-to-one binding. A higher Kd goes with lower affinity. As a reminder, the koff is the rate constant with which the complex falls apart. High values mean a short-lived complex, low ones a long-lived complex. What is called kon is a measure of how fast the partners come together. Read a high kon as fast association.
